2 substances from patent US20080038748 can be followed below.

For this data set, the system named is human recombinant LAP β1 (R&D), not treated with protease.
Chain of human recombinant LAP β1 (R&D), not treated with protease (chain, as listed by the source): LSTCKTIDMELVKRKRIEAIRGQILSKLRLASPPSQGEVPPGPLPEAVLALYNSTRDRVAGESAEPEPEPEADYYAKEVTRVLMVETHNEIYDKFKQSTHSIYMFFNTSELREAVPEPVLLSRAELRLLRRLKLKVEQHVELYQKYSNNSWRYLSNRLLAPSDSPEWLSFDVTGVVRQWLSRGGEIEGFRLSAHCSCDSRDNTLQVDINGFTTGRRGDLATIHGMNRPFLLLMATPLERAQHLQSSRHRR

Chain of human plasma kallikrein (Sigma) (chain, as listed by the source): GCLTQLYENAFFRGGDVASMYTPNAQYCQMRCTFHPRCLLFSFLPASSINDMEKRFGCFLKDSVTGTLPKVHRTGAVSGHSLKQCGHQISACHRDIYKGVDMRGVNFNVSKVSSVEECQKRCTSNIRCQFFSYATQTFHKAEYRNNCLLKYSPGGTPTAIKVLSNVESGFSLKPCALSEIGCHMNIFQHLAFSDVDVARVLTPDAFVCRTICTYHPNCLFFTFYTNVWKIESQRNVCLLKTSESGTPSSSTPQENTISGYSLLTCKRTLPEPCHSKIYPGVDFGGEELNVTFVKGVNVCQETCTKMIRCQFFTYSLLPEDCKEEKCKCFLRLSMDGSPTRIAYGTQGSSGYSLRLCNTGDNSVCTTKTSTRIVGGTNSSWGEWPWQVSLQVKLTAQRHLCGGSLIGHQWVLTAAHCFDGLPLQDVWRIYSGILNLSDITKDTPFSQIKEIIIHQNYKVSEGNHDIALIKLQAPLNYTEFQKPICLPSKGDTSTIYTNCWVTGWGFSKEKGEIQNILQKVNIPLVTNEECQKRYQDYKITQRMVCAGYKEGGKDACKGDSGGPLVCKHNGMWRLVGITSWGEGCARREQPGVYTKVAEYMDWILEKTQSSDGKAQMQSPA
Chain of human recombinant matrix metalloprotease 3 (MMP3) (Alexis) (chain, as listed by the source): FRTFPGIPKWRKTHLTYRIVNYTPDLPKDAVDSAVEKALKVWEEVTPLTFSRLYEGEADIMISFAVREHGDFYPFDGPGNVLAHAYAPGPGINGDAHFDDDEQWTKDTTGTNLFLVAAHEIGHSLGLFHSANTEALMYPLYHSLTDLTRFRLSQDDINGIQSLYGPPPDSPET

Regarding human plasma kallikrein (Sigma), the “limited degradation; cleavage site by N-terminal sequencing of the fragments” value was “plasma kallikrein specifically cleaves between 58 Arg and 59 Leu thereof”. With “human recombinant matrix metalloprotease 3 (MMP3) (Alexis)”, the “limited degradation; cleavage site by N-terminal sequencing of the fragments” value is “MMP3 specifically cleaves between 79 Ala and 80 Leu thereof”.
